From patent publication US20140087995A1 (published 2014) come the findings set out here.

By IC50 is commonly meant the concentration at which inhibition is half-maximal.

Numbered stars: 1 amine (or outer) side, 2 acyl side, 3 side chain; on linkers, the order of the positions; unused ones are H or OH. Bridge positions count the residues as written; N and C are the ends. Side chains are listed from the residue outwards. Ends that are not written are not given here. * marks the point of attachment. C20 diacid = O=C(O)CCCCCCCCCCCCCCCCCCC(=O)*; C18 diacid = O=C(O)CCCCCCCCCCCCCCCCC(=O)*; C16 diacid = O=C(O)CCCCCCCCCCCCCCC(=O)*; γGlu = O=C(O)[C@H](CCC(=O)[*:2])N[*:1]; C14 diacid = O=C(O)CCCCCCCCCCCCC(=O)*; AEEA = NCCOCCOCC(=O)O

T1: human calcitonin receptor (human, UniProt P30988 25-474)
T1 construct: whole, on cells; Assay used cell membranes, not intact cells; also called hCTR; hCT
T1 sequence (looked up): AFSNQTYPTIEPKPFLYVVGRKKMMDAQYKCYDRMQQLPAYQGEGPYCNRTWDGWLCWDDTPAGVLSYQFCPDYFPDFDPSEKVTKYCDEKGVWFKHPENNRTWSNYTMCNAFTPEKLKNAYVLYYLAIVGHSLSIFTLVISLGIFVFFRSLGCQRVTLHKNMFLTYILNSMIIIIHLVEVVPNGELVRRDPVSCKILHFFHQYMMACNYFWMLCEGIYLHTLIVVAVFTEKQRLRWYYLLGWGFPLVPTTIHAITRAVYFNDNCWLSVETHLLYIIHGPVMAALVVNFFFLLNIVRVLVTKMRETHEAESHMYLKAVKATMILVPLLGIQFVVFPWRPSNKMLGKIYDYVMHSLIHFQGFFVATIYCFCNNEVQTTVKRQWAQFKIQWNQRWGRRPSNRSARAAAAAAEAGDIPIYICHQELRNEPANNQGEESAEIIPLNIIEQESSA

T2: human amylin receptor (amylin 3(a) receptor: human calcitonin receptor with RAMP-3) (human, UniProt P30988 25-474; O60896 24-148)
T2 construct: whole, on cells; Assay used cell membranes of the Amylin 3(a)/CRE-luc BHK cells, not intact cells; also called hAmylin-R; hAmylinR
T2 sequence (looked up) 1: T1 sequence (looked up)
T2 sequence (looked up) 2: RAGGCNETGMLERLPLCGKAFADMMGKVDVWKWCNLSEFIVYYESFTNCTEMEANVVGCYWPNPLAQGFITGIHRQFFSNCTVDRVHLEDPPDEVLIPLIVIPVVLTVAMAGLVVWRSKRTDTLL

B1: N^ε1-[2-[2-[2-[[(4S)-4-carboxy-4-(19-carboxynonadecanoylamino)butanoyl]amino]ethoxy]ethoxy]acetyl]-[His14,Arg17,Pro21,Pro27,His34]-h-amylin (peptide)
peptide: K([AEEA-γGlu-C20 diacid])CNTATCATQRLAHFLRHSSPNFGAIPSSTNVGHNTY-NH2
modifications: disulfide 2-7; N-terminus assumed
SMILES: CC[C@H](C)[C@H](NC(=O)[C@H](C)NC(=O)CNC(=O)[C@H](Cc1ccccc1)NC(=O)[C@H](CC(N)=O)NC(=O)[C@@H]1CCCN1C(=O)[C@H](CO)NC(=O)[C@H](CO)NC(=O)[C@H](Cc1c[nH]cn1)NC(=O)[C@H](CCCNC(=N)N)NC(=O)[C@H](CC(C)C)NC(=O)[C@H](Cc1ccccc1)NC(=O)[C@H](Cc1c[nH]cn1)NC(=O)[C@H](C)NC(=O)[C@H](CC(C)C)NC(=O)[C@H](CCCNC(=N)N)NC(=O)[C@H](CCC(N)=O)NC(=O)[C@@H](NC(=O)[C@H](C)NC(=O)[C@@H]1CSSC[C@H](NC(=O)[C@@H](N)CCCCNC(=O)COCCOCCNC(=O)CC[C@H](NC(=O)CCCCCCCCCCCCCCCCCCC(=O)O)C(=O)O)C(=O)N[C@@H](CC(N)=O)C(=O)N[C@@H]([C@@H](C)O)C(=O)N[C@@H](C)C(=O)N[C@@H]([C@@H](C)O)C(=O)N1)[C@@H](C)O)C(=O)N1CCC[C@H]1C(=O)N[C@@H](CO)C(=O)N[C@@H](CO)C(=O)N[C@H](C(=O)N[C@@H](CC(N)=O)C(=O)N[C@H](C(=O)NCC(=O)N[C@@H](Cc1c[nH]cn1)C(=O)N[C@@H](CC(N)=O)C(=O)N[C@H](C(=O)N[C@@H](Cc1ccc(O)cc1)C(N)=O)[C@@H](C)O)C(C)C)[C@@H](C)O
notes: also called compound 80
B2: N^ε1-[(4S)-4-carboxy-4-(15-carboxypentadecanoylamino)butanoyl]-[Arg17,Pro21,Pro27,His34]-h-amylin (peptide)
peptide: K([γGlu-C16 diacid])CNTATCATQRLANFLRHSSPNFGAIPSSTNVGHNTY-NH2
modifications: disulfide 2-7; N-terminus assumed
SMILES: CC[C@H](C)[C@H](NC(=O)[C@H](C)NC(=O)CNC(=O)[C@H](Cc1ccccc1)NC(=O)[C@H](CC(N)=O)NC(=O)[C@@H]1CCCN1C(=O)[C@H](CO)NC(=O)[C@H](CO)NC(=O)[C@H](Cc1c[nH]cn1)NC(=O)[C@H](CCCNC(=N)N)NC(=O)[C@H](CC(C)C)NC(=O)[C@H](Cc1ccccc1)NC(=O)[C@H](CC(N)=O)NC(=O)[C@H](C)NC(=O)[C@H](CC(C)C)NC(=O)[C@H](CCCNC(=N)N)NC(=O)[C@H](CCC(N)=O)NC(=O)[C@@H](NC(=O)[C@H](C)NC(=O)[C@@H]1CSSC[C@H](NC(=O)[C@@H](N)CCCCNC(=O)CC[C@H](NC(=O)CCCCCCCCCCCCCCC(=O)O)C(=O)O)C(=O)N[C@@H](CC(N)=O)C(=O)N[C@@H]([C@@H](C)O)C(=O)N[C@@H](C)C(=O)N[C@@H]([C@@H](C)O)C(=O)N1)[C@@H](C)O)C(=O)N1CCC[C@H]1C(=O)N[C@@H](CO)C(=O)N[C@@H](CO)C(=O)N[C@H](C(=O)N[C@@H](CC(N)=O)C(=O)N[C@H](C(=O)NCC(=O)N[C@@H](Cc1c[nH]cn1)C(=O)N[C@@H](CC(N)=O)C(=O)N[C@H](C(=O)N[C@@H](Cc1ccc(O)cc1)C(N)=O)[C@@H](C)O)C(C)C)[C@@H](C)O
B3: N^ε1-[2-[2-[2-[[(4S)-4-carboxy-4-(19-carboxynonadecanoylamino)butanoyl]amino]ethoxy]ethoxy]acetyl]-[Thr14,Arg17,Pro21,Pro27,Pro31]-h-amylin (peptide)
peptide: K([AEEA-γGlu-C20 diacid])CNTATCATQRLATFLRHSSPNFGAIPSSTPVGSNTY-NH2
modifications: disulfide 2-7; N-terminus assumed
SMILES: CC[C@H](C)[C@H](NC(=O)[C@H](C)NC(=O)CNC(=O)[C@H](Cc1ccccc1)NC(=O)[C@H](CC(N)=O)NC(=O)[C@@H]1CCCN1C(=O)[C@H](CO)NC(=O)[C@H](CO)NC(=O)[C@H](Cc1c[nH]cn1)NC(=O)[C@H](CCCNC(=N)N)NC(=O)[C@H](CC(C)C)NC(=O)[C@H](Cc1ccccc1)NC(=O)[C@@H](NC(=O)[C@H](C)NC(=O)[C@H](CC(C)C)NC(=O)[C@H](CCCNC(=N)N)NC(=O)[C@H](CCC(N)=O)NC(=O)[C@@H](NC(=O)[C@H](C)NC(=O)[C@@H]1CSSC[C@H](NC(=O)[C@@H](N)CCCCNC(=O)COCCOCCNC(=O)CC[C@H](NC(=O)CCCCCCCCCCCCCCCCCCC(=O)O)C(=O)O)C(=O)N[C@@H](CC(N)=O)C(=O)N[C@@H]([C@@H](C)O)C(=O)N[C@@H](C)C(=O)N[C@@H]([C@@H](C)O)C(=O)N1)[C@@H](C)O)[C@@H](C)O)C(=O)N1CCC[C@H]1C(=O)N[C@@H](CO)C(=O)N[C@@H](CO)C(=O)N[C@H](C(=O)N1CCC[C@H]1C(=O)N[C@H](C(=O)NCC(=O)N[C@@H](CO)C(=O)N[C@@H](CC(N)=O)C(=O)N[C@H](C(=O)N[C@@H](Cc1ccc(O)cc1)C(N)=O)[C@@H](C)O)C(C)C)[C@@H](C)O
notes: also called compound 75
B4: N^ε1-[(4S)-4-carboxy-4-(13-carboxytridecanoylamino)butanoyl]-[Arg17,Pro21,Pro27,His34]-h-amylin (peptide)
peptide: K([γGlu-C14 diacid])CNTATCATQRLANFLRHSSPNFGAIPSSTNVGHNTY-NH2
modifications: disulfide 2-7; N-terminus assumed
SMILES: CC[C@H](C)[C@H](NC(=O)[C@H](C)NC(=O)CNC(=O)[C@H](Cc1ccccc1)NC(=O)[C@H](CC(N)=O)NC(=O)[C@@H]1CCCN1C(=O)[C@H](CO)NC(=O)[C@H](CO)NC(=O)[C@H](Cc1c[nH]cn1)NC(=O)[C@H](CCCNC(=N)N)NC(=O)[C@H](CC(C)C)NC(=O)[C@H](Cc1ccccc1)NC(=O)[C@H](CC(N)=O)NC(=O)[C@H](C)NC(=O)[C@H](CC(C)C)NC(=O)[C@H](CCCNC(=N)N)NC(=O)[C@H](CCC(N)=O)NC(=O)[C@@H](NC(=O)[C@H](C)NC(=O)[C@@H]1CSSC[C@H](NC(=O)[C@@H](N)CCCCNC(=O)CC[C@H](NC(=O)CCCCCCCCCCCCC(=O)O)C(=O)O)C(=O)N[C@@H](CC(N)=O)C(=O)N[C@@H]([C@@H](C)O)C(=O)N[C@@H](C)C(=O)N[C@@H]([C@@H](C)O)C(=O)N1)[C@@H](C)O)C(=O)N1CCC[C@H]1C(=O)N[C@@H](CO)C(=O)N[C@@H](CO)C(=O)N[C@H](C(=O)N[C@@H](CC(N)=O)C(=O)N[C@H](C(=O)NCC(=O)N[C@@H](Cc1c[nH]cn1)C(=O)N[C@@H](CC(N)=O)C(=O)N[C@H](C(=O)N[C@@H](Cc1ccc(O)cc1)C(N)=O)[C@@H](C)O)C(C)C)[C@@H](C)O
B5: N^ε1-[(4S)-4-carboxy-4-(17-carboxyheptadecanoylamino)butanoyl]-[Arg17,Pro21,Pro27,His34]-h-amylin (peptide)
peptide: K([γGlu-C18 diacid])CNTATCATQRLANFLRHSSPNFGAIPSSTNVGHNTY-NH2
modifications: disulfide 2-7; N-terminus assumed
SMILES: CC[C@H](C)[C@H](NC(=O)[C@H](C)NC(=O)CNC(=O)[C@H](Cc1ccccc1)NC(=O)[C@H](CC(N)=O)NC(=O)[C@@H]1CCCN1C(=O)[C@H](CO)NC(=O)[C@H](CO)NC(=O)[C@H](Cc1c[nH]cn1)NC(=O)[C@H](CCCNC(=N)N)NC(=O)[C@H](CC(C)C)NC(=O)[C@H](Cc1ccccc1)NC(=O)[C@H](CC(N)=O)NC(=O)[C@H](C)NC(=O)[C@H](CC(C)C)NC(=O)[C@H](CCCNC(=N)N)NC(=O)[C@H](CCC(N)=O)NC(=O)[C@@H](NC(=O)[C@H](C)NC(=O)[C@@H]1CSSC[C@H](NC(=O)[C@@H](N)CCCCNC(=O)CC[C@H](NC(=O)CCCCCCCCCCCCCCCCC(=O)O)C(=O)O)C(=O)N[C@@H](CC(N)=O)C(=O)N[C@@H]([C@@H](C)O)C(=O)N[C@@H](C)C(=O)N[C@@H]([C@@H](C)O)C(=O)N1)[C@@H](C)O)C(=O)N1CCC[C@H]1C(=O)N[C@@H](CO)C(=O)N[C@@H](CO)C(=O)N[C@H](C(=O)N[C@@H](CC(N)=O)C(=O)N[C@H](C(=O)NCC(=O)N[C@@H](Cc1c[nH]cn1)C(=O)N[C@@H](CC(N)=O)C(=O)N[C@H](C(=O)N[C@@H](Cc1ccc(O)cc1)C(N)=O)[C@@H](C)O)C(C)C)[C@@H](C)O

One experiment addresses T1, human calcitonin receptor. The experiment in a line: SPA competition with 125I-calcitonin on membranes of BHK cells with human calcitonin receptor (Assay VII). In a few lines:
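BHK hCTR membranes 35 ng/μL + SPA beads 0.05 mg/well; buffer 50 mM Hepes pH 7.4, 1 mM CaCl2, 5 mM MgCl₂, 0.1% OA, 0.02% Tween20. 120 min, 25° C., shaking. Scintillation count; IC50 by one-site binding competition.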
On to B1, for which the IC50 came to 19.8 nM.

For B2, the IC50 was 10.8 nM.

B3: the concentration for half-maximal inhibition (IC50) was determined as 60.9 nM.

For B4, the IC50 is 24.3 nM.

For the molecule B5, the IC50 came out at 22.7 nM.

The target in another experiment is T1, human calcitonin receptor. Put plainly: ratio IC50 hCTR / IC50 hAmylin-R (reference: human amylin receptor), SPA competition assays. In short, it runs like this: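 Scintillation proximity competition binding on cell membranes at 35 ng/μL with SPA beads, in 50 mM Hepes pH 7.4, 1 mM CaCl2, 5 mM MgCl₂, 0.1% OA, 0.02% Tween20. Incubated 120 min at 25° C with shaking. IC₅₀ from one-site competition fit.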
For the molecule B1, the “Ratio hCT/hAmylin binding” value is 68.1.

Consider B2, for which the “Ratio hCT/hAmylin binding” value was 18.5.

Take B3: the “Ratio hCT/hAmylin binding” value was determined as 91.4.

Consider B4, for which the “Ratio hCT/hAmylin binding” value worked out at 23.5.

With B5, the “Ratio hCT/hAmylin binding” value amounted to 59.4.

A further experiment has as its target T2, human amylin receptor (amylin 3(a) …). The experiment in a line: SPA competition with 125I-rat amylin on membranes of BHK cells with human calcitonin receptor and RAMP-3 (Assay V). In short, it runs like this:
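Membranes from BHK Amylin 3(a)/CRE-luc cells (35 ng/μL final) were mixed with SPA beads and test compounds in 50 mM Hepes pH 7.4 with 1 mM CaCl2, 5 mM MgCl₂, 0.1% OA and 0.02% Tween20. Incubation ran 120 min at 25° C with shaking; IC₅₀ came from one-site competition fitting.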
B1: the concentration for half-maximal inhibition (IC50) is 0.29 nM.

In the case of B2, the IC50 is 0.58 nM.

For the molecule B3, the 50% inhibitory concentration (IC50) is 0.666 nM.

With B4, the concentration for half-maximal inhibition (IC50) was determined as 1.04 nM.

As for B5, the IC50 amounted to 0.382 nM.
